Experiment [1] addresses 30-kDa subunit of the cellular cleavage and polyadenylation specificity factor (CPSF30), human (human) (UniProt O95639). The experiment can be described thus: cell-based or functional assay.
Experiment [2] has as its target NS1A protein of the influenza A/PR8/34 (PR8) virus strain (influenza A virus A/PR8/34, UniProt P03496 1-230). Kind of experiment: not described.

Sequence of NS1A protein of the influenza A/PR8/34 (PR8) virus strain (P03496 whole entry): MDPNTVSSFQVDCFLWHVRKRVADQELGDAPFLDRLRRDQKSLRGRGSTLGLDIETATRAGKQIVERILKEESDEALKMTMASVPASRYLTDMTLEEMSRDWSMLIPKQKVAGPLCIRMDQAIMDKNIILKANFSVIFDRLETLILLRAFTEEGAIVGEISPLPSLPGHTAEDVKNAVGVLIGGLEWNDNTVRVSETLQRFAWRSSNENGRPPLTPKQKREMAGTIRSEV
Sequence of 30-kDa subunit of the cellular cleavage and polyadenylation specificity factor (CPSF30), human (human) (O95639 whole entry): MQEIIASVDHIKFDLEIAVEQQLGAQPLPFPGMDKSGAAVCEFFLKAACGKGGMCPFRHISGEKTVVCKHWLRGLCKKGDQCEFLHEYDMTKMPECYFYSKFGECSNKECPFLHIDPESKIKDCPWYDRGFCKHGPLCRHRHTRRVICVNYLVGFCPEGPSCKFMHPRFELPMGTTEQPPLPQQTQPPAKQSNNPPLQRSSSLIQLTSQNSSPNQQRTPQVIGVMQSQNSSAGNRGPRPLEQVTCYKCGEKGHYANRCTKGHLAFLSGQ

As for “HK97 NS1A protein with I at position 106 changed to M and L at 103 changed to F”, the rate of replication and virus yield during multiple cycle growth in experiment [1] was 100 fold.

B1: F2F3 fragment of CPSF30 (construct not stated) (other)
chain: SGEKTVVCKHWLRGLCKKGDQCEFLHEYDMTKMPECYFYSKFGECSNKECPFLHIDPESKI
Consider B1, for which the binding result in experiment [2] is reported as “no binding”.

These data come from patent publication US20140308307A1 (University of Texas, published 2014).
